In the Immune Epitope Database (IEDB) one finds Kd data, which are given here for 89 sequences.

A value given as a limit tells only on which side of the number the result lay.

The target of one experiment is HLA-B*40:01. Kind of experiment: IEDB peptide-MHC binding, purified MHC/direct/fluorescence; filed as Kd, often an IC50 or EC50 that approximates it; ≥ and ≤ were set here for values at or beyond the usual limits of such assays. As to conditions: source organism: dengue virus type 2.
As usually defined, the Kd is a measure of binding affinity in units of concentration. Consider SEMGANFKA, for which the Kd is 0.496 µM.

Staying with this experiment, now noted: source organism: dengue virus type 3.
LEFEALGFL yielded a Kd not above 0.001 µM.

Staying with this experiment, now noted: source organism: dengue virus type 4.
As to AQMWSLMYF, the Kd came out at 0.032 µM. That is a double-digit nanomolar value.
MEVQLIRQM: the Kd was 0.158 µM.
Sequence SEHTGREIV displayed a Kd of 0.021 µM.

The next experiment has as its target HLA-A*03:01. The description is as above. The settings on record: source organism: Yellow fever virus.
ALNTITNLK: the Kd was determined as 0.245 µM. This counts as sub-micromolar.
GTHPFSRIR: the Kd turned out to be 0.859 µM.
With KTALTGAMR, the Kd came to 0.147 µM. Compared with the last sequence, the Kd is about 5.8-fold lower.
KTHESHLVR gave a Kd of 0.678 µM.
Take KVVNRWLFR: the equilibrium dissociation constant (Kd) is 0.218 µM. This Kd lies about 3.1-fold lower than the previous one.
RSHAAIGAY: the Kd is 0.313 µM.
For the sequence RVDGLELKK, the dissociation constant (Kd) was found to be 0.203 µM.
TINAVASRK yielded a Kd of 0.129 µM.
As for VLDCRTAFK, the Kd is 0.075 µM.
Same read-out and setting: in the case of VLWDIPTPK it was 0.014 µM; in that of VMYNLWKMK, 0.004 µM.

Still in this experiment, the particulars now being: source organism: dengue virus type 1.
With AVSMANIFR, the Kd was determined as 0.052 µM.
The same measure, in the same setting: in the case of SSADLSLEK it was 0.085 µM.
The sequence SSMVNGVVR gave a Kd not below 20 µM.

Staying with this experiment, now noted: source organism: dengue virus type 2.
In the case of KTFVDLMRR, the Kd is 0.08 µM.
Still for that read-out and setting: as for TVNPIVTEK, the figure is 0.04 µM.

Staying with this experiment, now noted: source organism: dengue virus type 3.
For the sequence KTFDTEYQK, the Kd was 0.198 µM.
Same read-out and setting: as for SYYCAGLKK, the figure is 2.13 µM; as for TVMDIISRK, 0.03 µM.

The same experiment, now with this note: source organism: dengue virus type 4.
The sequence ATYGWNLVK displayed a Kd of 0.003 µM. In other words, the single-digit nanomolar range.
Same read-out and setting: in the case of KTFVELMRR it was 0.045 µM; in that of KVASAGISY, 0.085 µM.
The same measure, in the same setting: in the case of VVTLIPLCR it was 9.04 µM.

The target of a further experiment is HLA-A*26:01. The experiment is described as above. As to conditions: source organism: Yellow fever virus.
EAMDTISVF: the Kd is 0.007 µM. This lies in the single-digit nanomolar range.
For EAPEMPALY, the Kd stood at 0.594 µM.
The same measure, in the same setting: in the case of EISGSSARY it was 0.003 µM; in that of ETACLSKAY, 0.008 µM; in that of EVDQTKIQY, 3.69 µM.
Sequence FCVKVLAPY showed a Kd of 0.427 µM.
On the same count and under the same terms, as for FLILGMLLM, the figure is not below 20 µM; as for GTGDSRLTY, not below 20 µM; as for LVLAVGPAY, 5.12 µM.
On the same count and under the same terms, in the case of SSHNHIPGY it was 0.136 µM.
The sequence TAVDFGNSY came in with a Kd of 0.008 µM.
As for YTIDCDGSI, the Kd worked out at 0.251 µM.
Same read-out and setting: as for YVIRDLAAM, the figure is not above 0.001 µM.

Still in this experiment, the particulars now being: source organism: dengue virus type 1.
EVHTWTEQY displayed a dissociation constant Kd of 0.002 µM.
SVKKDLISY displayed a dissociation constant Kd of 0.031 µM. This Kd is about 16-fold higher than that of the sequence before.

The experiment is the same for the next values; noted with them: source organism: dengue virus type 2.
As to DVVPMVTQM, the Kd came to 0.002 µM. That is a single-digit nanomolar value.
On the same count and under the same terms, in the case of ETLETLLLL it was 0.347 µM.
With EYTDYMPSM, the equilibrium dissociation constant (Kd) is 1.82 µM.

The same experiment, now with this note: source organism: dengue virus type 4.
FCIKVLNPY returned a dissociation constant (Kd) not below 20 µM.
FTTNIWMKF came in with a Kd of 0.117 µM.
Turning to NVHTWTEQY, the Kd turned out to be 0.039 µM.
The same measure, in the same setting: as for TTRHRKPTY, the figure is not below 20 µM.

In the next experiment the target is HLA-A*02:01. The experiment is described as above. The settings on record: source organism: Yellow fever virus.
AMLHWSLIL gave a Kd of 0.114 µM.
As for FVRNPFFAV, the Kd turned out to be 1.25 µM.
Still for that read-out and setting: in the case of GLFGGLNWI it was not above 0.001 µM.
Turning to IIMDEAHFL, the Kd came to 0.003 µM.
On the same count and under the same terms, in the case of IMGAVLIWV it was 0.059 µM.
Consider KMLDPRQGL, for which the dissociation constant Kd was 0.039 µM.
Still for that read-out and setting: in the case of VLAPYMPDV it was not above 0.001 µM.
The same measure, in the same setting: in the case of VMAPDKPSL it was 0.325 µM.
On the same count and under the same terms, as for YLIIGILTL, the figure is 0.025 µM.
YMPDVLEKL came in with a dissociation constant Kd of 0.002 µM.

Still in this experiment, the particulars now being: source organism: dengue virus type 1.
The sequence PLNEGIMAV displayed a Kd of 0.048 µM.
Regarding YMPSVVETL, the Kd is not above 0.001 µM.

Still in this experiment, the particulars now being: source organism: dengue virus type 2.
In turn, KMDIGVPLL returned a dissociation constant (Kd) not above 0.001 µM.
As for LLLTLLATV, the equilibrium dissociation constant (Kd) was 0.043 µM.
Turning to LVAGGLLTV, the Kd is not below 20 µM.
Sequence SMVNGVVRL came in with a dissociation constant Kd of 0.002 µM.

Staying with this experiment, now noted: source organism: dengue virus type 3.
ILTDGPERV returned a Kd of 0.004 µM.
Still for that read-out and setting: as for TLYAVATTV, the figure is not above 0.001 µM.

Still in this experiment, the particulars now being: source organism: dengue virus type 4.
The sequence IMAVGLVSL had an equilibrium dissociation constant (Kd) of 0.093 µM.
SMVNGVVKL gave a Kd of 0.025 µM. Against the preceding sequence, the Kd is about 3.7-fold lower.

In the next experiment the target is HLA-B*08:01. The description is as above. The settings on record: source organism: Yellow fever virus.
The sequence AIHPFALLL yielded an equilibrium dissociation constant (Kd) not below 20 µM.
Take EVRLATMLF: the Kd turned out to be 1.75 µM.
Sequence GSRAYRNAL returned a dissociation constant (Kd) of 0.694 µM.
Still for that read-out and setting: in the case of HLKRLWKML it was 0.016 µM.
Still for that read-out and setting: as for SCRVKLSAL, the figure is 0.558 µM; as for VNRWLFRHL, not below 20 µM.
The same measure, in the same setting: as for YFHKRDMRL, the figure is 0.06 µM.

Still in this experiment, the particulars now being: source organism: dengue virus type 1.
LAKRFSKGL had a Kd of 4.48 µM.
Still for that read-out and setting: as for RKKLRPRWL, the figure is 16.9 µM; as for YFHRRDLRL, 0.052 µM.

Still in this experiment, the particulars now being: source organism: dengue virus type 2.
In turn, CAHWKEAKM yielded a Kd of 7.05 µM.
FRKKRLTIM displayed a dissociation constant Kd of 0.014 µM.
KCRLRMDKL gave an equilibrium dissociation constant (Kd) of 6.92 µM.
Same read-out and setting: as for QLKGMSYSM, the figure is 0.104 µM.
Same read-out and setting: as for RKKLKPRWL, the figure is not below 20 µM.

Still in this experiment, the particulars now being: source organism: dengue virus type 3.
ELKGMSYAM yielded a Kd of 0.132 µM.
The sequence KKKLRPRWL gave an equilibrium dissociation constant (Kd) of 12.7 µM. Compared with the last sequence, the Kd is about 96-fold higher.
KWKKKLNQL yielded a Kd not below 20 µM.
The same measure, in the same setting: in the case of VINWKGKEL it was 2.37 µM.
